According to publication PMC8113581 (Nature Communications, 2021):

Biological target: T1, SARS-CoV-2 Spike S1+S2 ECD, his Tag protein (SARS-CoV-2, Wuhan-Hu-1, UniProt P0DTC2)
T1 construct: also called full-length S protein; full-length S-his; source: bought: Sino Biological
Test: ELISA
Conditions: both partners purified

B1: P4A1 (antibody, V domains shown)
VH: EVQLVESGGGLIQPGGSLRLSCAASGFIVSSNYMSWVRQAPGKGLEWVSIIYSGGSTFYADSVKGRFTISRDNSKNTLYLQMNSLRVEDTAVYYCARDLQELGSLDYWGQGTLVTVSS
VL: DIQMTQSPSSVSASVGDRVTITCRASQGISSWLAWYQQKPGKAPKLLIYAASSLQSGVPSRFSGSGSGTDFTLTISSLQPEDFATYYCQEANSFPYTFGQGTKLEIK
notes: also called P4A1 (IgG1); IgG1 form P4A1
binding result: binds
